# Laboratory results taken from US20220025021A1 (BETH ISRAEL DEACONESS MEDICAL CENTER, published 2022).
# Changes are numbered by the printed parent chain.
# B1: MS-68 (antibody)
# VH: not shown
# VL: DFVLTQSPHSLPVTPGESASISCKSSHSLIHGDRNNYLAWYVQKPGRSPQLLIYLASSRASGVPDRFSGSGSDKDFTLKISRVETEDVGTYYCMQGRESPWTFGQGTKVDIKRTVAAPSVFIFPPSDEQLKSGTASVVCLLNNFYPREAKVQWKVDNALQSGNSQESVTEQDSKDSTYSLSSTLTLSKADYEKHKVYACEVTHQGLSSPVTKSFNRGEC
# B2: MS-73 (antibody)
# VH: not shown
# VL: B1 VL with P12S, T85A
# B3: MS-69 (antibody)
# VH: not shown
# VL: B1 VL with P12S, S18P
# B4: MS-71 (antibody)
# VH: not shown
# VL: B1 VL with P12S, D73G
# B5: MS-70 (antibody, V domains shown)
# VH: QVQLVQSGPEVRKPGTSVKVSCKAPGNTLKTYDLHWVRSVPGQGLQWMGWISHEGDKKVIVERFKAKVTIDWDRSTNTAYLQLSGLTSGDTAVYYCAKGSKHRLRDYALYDDDGALNWAVDVDYLSNLEFWGQGTAVTVSS
# VL: DFVLTQSPHSLSVTPGESASISCKSSHSLIHGDRNNYLAWYVQKPGQSPQLLIYLASSRASGVPDRFSGSGSDKDFTLKISRVETEDVGTYYCMQGRESPWTFGQGTKVDIKR
# B6: MS-74 (antibody, V domains shown)
# VH: B5 VH
# VL: B5 VL with Q47R, T90V
# B7: MS-75 (antibody, V domains shown)
# VH: B5 VH with P25S
# VL: B5 VL with Q47R
# B8: MS-78 (antibody, V domains shown)
# VH: B5 VH with Q46E
# VL: B5 VL with Q47R
# B9: MS-81 (antibody, V domains shown)
# VH: B5 VH with Q82E
# VL: B5 VL with Q47R
# B10: MS-76 (antibody, V domains shown)
# VH: B5 VH with N27Y
# VL: B5 VL with Q47R
# B11: MS-72 (antibody, V domains shown)
# VH: B5 VH
# VL: B5 VL with Q47R, K74T
# B12: MS-80 (antibody, V domains shown)
# VH: B5 VH with W72R
# VL: B5 VL with Q47R
# B13: MS-79 (antibody, V domains shown)
# VH: B5 VH with D71T
# VL: B5 VL with Q47R
# B14: MS-82 (antibody, V domains shown)
# VH: B5 VH with T87R
# VL: B5 VL with Q47R
# B15: MS-77 (antibody, V domains shown)
# VH: B5 VH with L29F
# VL: B5 VL with Q47R
# Target: HIV-1 Env of pseudovirus SC422661.8 (HIV-1)
# Test: cell-based or functional assay
Binder,neutralization IC50 [µg/mL],neutralization IC80 [µg/mL]
B1,0.538,2.02
B2,0.384,2.54
B3,0.609,3.37
B4,0.273,1.94
B5,0.391,2.43
B6,0.388,3.51
B7,0.489,9.41
B8,0.635,3.63
B9,0.418,4.25
B10,0.36,6.46
B11,0.373,2.83
B12,0.451,> 25
B13,0.587,> 25
B14,0.387,3.29
B15,0.373,3.59

# Target: HIV-1 Env of pseudovirus RHPA4259.7 (HIV-1)
# Test: cell-based or functional assay
Binder,neutralization IC50 [µg/mL],neutralization IC80 [µg/mL]
B1,0.199,0.759
B2,0.094,0.549
B3,0.139,0.811
B4,0.164,0.583
B5,0.182,0.734
B6,0.132,0.461
B7,0.276,1.31
B8,0.241,0.841
B9,0.202,0.897
B10,0.242,0.842
B11,0.247,1.16
B12,0.267,1.24
B13,0.221,0.792
B14,0.192,0.672
B15,0.209,0.734

# Target: HIV-1 Env of pseudovirus Du172.17 (HIV-1)
# Test: cell-based or functional assay
Binder,neutralization IC50 [µg/mL],neutralization IC80 [µg/mL]
B1,1.82,6.8
B2,0.934,5
B3,1.4,5.6
B4,1.29,6.07
B5,1.49,6.05
B6,1.46,5.57
B7,3.56,16.1
B8,1.71,7
B9,1.65,6.37
B10,1.7,9.68
B11,1.75,8.76
B12,15.2,> 25
B13,7.28,> 25
B14,1.88,7
B15,2.23,12.2

# Target: HIV-1 Env of pseudovirus BB1012-11.TC21 (HIV-1)
# Test: cell-based or functional assay
Binder,neutralization IC50 [µg/mL],neutralization IC80 [µg/mL]
B1,0.023,0.076
B2,0.023,0.086
B3,0.018,0.071
B4,0.015,0.054
B5,0.021,0.079
B6,0.021,0.093
B7,0.029,0.134
B8,0.024,0.105
B9,0.024,0.102
B10,0.013,0.059
B11,0.023,0.089
B12,0.02,0.086
B13,0.019,0.08
B14,0.023,0.108
B15,0.023,0.103

# Target: HIV-1 Env of pseudovirus CNE52 (HIV-1)
# Test: cell-based or functional assay
Binder,neutralization IC50 [µg/mL],neutralization IC80 [µg/mL]
B1,0.136,1.13
B2,0.207,1.81
B3,0.129,1.9
B4,0.172,2.59
B5,0.301,2.55
B6,0.169,1.46
B7,0.687,7.55
B8,0.233,1.39
B9,0.212,1.8
B10,0.174,1.37
B11,0.302,4.53
B12,5.25,> 25
B13,2.42,> 25
B14,0.206,1.18
B15,0.322,2.71

# Target: HIV-1 Env of pseudovirus 0260.v5.c36 (HIV-1)
# Test: cell-based or functional assay
Binder,neutralization IC50 [µg/mL],neutralization IC80 [µg/mL]
B1,0.019,0.073
B2,0.018,0.065
B3,0.021,0.078
B4,0.022,0.062
B5,0.028,0.103
B6,0.017,0.086
B7,0.034,0.137
B8,0.02,0.095
B9,0.02,0.075
B10,0.01,0.06
B11,0.023,0.114
B12,0.041,0.321
B13,0.028,0.159
B14,0.016,0.051
B15,0.019,0.101
